From ChEMBL document CHEMBL2074270, “Transport of amphipathic anions by human multidrug resistance protein 3” (Cancer Res, 2000)

Experiments:
Type in all cases: functional, cell membranes
Settings in all cases: Membrane vesicle
[1] = substrate: CCCCC/C=C\C/C=C\C=C\C=C\[C@@H](SC[C@@H](NC(=O)CC[C@H](N)C(=O)O)C(=O)NCC(=O)O)[C@@H](O)CCCC(=O)O; test: (§1) TP_TRANSPORTER: uptake in membrane vesicles from MRP3-expressing HEK293 cells
[2] = substrate: CN(Cc1cnc2nc(N)nc(N)c2n1)c1ccc(C(=O)N[C@@H](CCC(=O)O)C(=O)O)cc1; test: as §1
[3] = substrate: C[C@H](CCC(=O)NCC(=O)O)[C@H]1CC[C@H]2[C@@H]3[C@H](O)C[C@@H]4C[C@H](O)CC[C@]4(C)[C@H]3C[C@H](O)[C@]12C; test: as §1
[4] = substrate: C[C@]12CC[C@@H]3c4ccc(O)cc4CC[C@H]3[C@@H]1CC[C@@H]2O[C@@H]1O[C@H](C(=O)O)[C@@H](O)[C@H](O)[C@H]1O; test: as §1
[5] = substrate: N[C@@H](CCC(=O)N[C@H](CSc1ccc([N+](=O)[O-])cc1[N+](=O)[O-])C(=O)NCC(=O)O)C(=O)O; test: as §1

B1: Multidrug resistance associated protein (Homo sapiens), Q96QA9 (protein)
chain: MDALCGSGELGSKFWDSNLSVHTENPDLTPCFQNSLLAWVPCIYLWVALPCYLLYLRHHCRGYIILSHLSKLKMVLGVLLWCVSWADLFYSFHGLVHGRAPAPVFFVTPLVVGVTMLLATLLIQYERLQGVQSSGVLIIFWFLCVVCAIVPFRSKILLAKAEGEISDPFRFTTFYIHFALVLSALILACFREKPPFFSAKNVDPNPYPETSAGFLSRLFFWWFTKMAIYGYRHPLEEKDLWSLKEEDRSQMVVQQLLEAWRKQEKQTARHKASAAPGKNASGEDEVLLGARPRPRKPSFLKALLATFGSSFLISACFKLIQDLLSFINPQLLSILIRFISNPMAPSWWGFLVAGLMFLCSMMQSLILQHYYHYIFVTGVKFRTGIMGVIYRKALVITNSVKRASTVGEIVNLMSVDAQRFMDLAPFLNLLWSAPLQIILAIYFLWQNLGPSVLAGVAFMVLLIPLNGAVAVKMRAFQVKQMKLKDSRIKLMSEILNGIKVLKLYAWEPSFLKQVEGIRQGELQLLRTAAYLHTTTTFTWMCSPFLVTLITLWVYVYVDPNNVLDAEKAFVSVSLFNILRLPLNMLPQLISNLTQASVSLKRIQQFLSQEELDPQSVERKTISPGYAITIHSGTFTWAQDLPPTLHSLDIQVPKGALVAVVGPVGCGKSSLVSALLGEMEKLEGKVHMKGSVAYVPQQAWIQNCTLQENVLFGKALNPKRYQQTLEACALLADLEMLPGGDQTEIGEKGINLSGGQRQRVSLARAVYSDADIFLLDDPLSAVDSHVAKHIFDHVIGPEGVLAGKTRVLVTHGISFLPQTDFIIVLADGQVSEMGPYPALLQRNGSFANFLCNYAPDEDQGHLEDSWTALEGAEDKEALLIEDTLSNHTDLTDNDPVTYVVQKQFMRQLSALSSDGEGQGRPVPRRHLGPSEKVQVTEAKADGALTQEEKAAIGTVELSVFWDYAKAVGLCTTLAICLLYVGQSAAAIGANVWLSAWTNDAMADSRQNNTSLRLGVYAALGILQGFLVMLAAMAMAAGGIQAARVLHQALLHNKIRSPQSFFDTTPSGRILNCFSKDIYVVDEVLAPVILMLLNSFFNAISTLVVIMASTPLFTVVILPLAVLYTLVQRFYAATSRQLKRLESVSRSPIYSHFSETVTGASVIRAYNRSRDFEIISDTKVDANQRSCYPYIISNRWLSIGVEFVGNCVVLFAALFAVIGRSSLNPGLVGLSVSYSLQVTFALNWMIRMMSDLESNIVAVERVKEYSKTETEAPWVVEGSRPPEGWPPRGEVEFRNYSVRYRPGLDLVLRDLSLHVHGGEKVGIVGRTGAGKSSMTLCLFRILEAAKGEIRIDGLNVADIGDPILFSGTLRMNLDPFGSYSEEDIWWALELSHLHTFVSSQPAGLDFQCSEGGENLSVGQRQLVCLARALLRKSRILVLDEATAAIDLETDNLIQATIRTQFDTCTVLTIAHRLNTIMDYTRVLVLDKGVVAEFDSPANLIAARGIFYGMARDAGLA
B1 gave a Km [1] of 5.3 µM, a Km [2] of 776 µM and a Km [3] of 248 µM. For the same protein, the Km [4] was 25.6 µM and the Km [5] was 5.7 µM.
